Laboratory results as given in the nanobody polyreactivity screen of Harvey et al. (2022).

Experiment: yeast display, Sf9 membrane polyspecificity reagent, FACS + sequencing; frameworks hold sequencing errors
Procedure, shortened: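 Galactose induction of a Saccharomyces cerevisiae BJ5465 synthetic nanobody display library ran 36–48 hours. The cells were then stained for 1 hour at 4 °C with 10% biotinylated, detergent-solubilized Sf9 membrane reagent, pulled down on streptavidin microbeads and FACS-sorted into low and high (top ~1%) gates on expression and reagent-binding fluorescence. Labels for polyreactivity follow the gate of origin.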

With “QGQLVESGGGLVQAGCSLRLSCAASGITYTPYALGWYRQAPGKAREFVASISVSGGSTYYADSVKGRFRFSRVNAKNTVYLEMNCLKPEDTAVYYCNAVSYRKHYFNSLYGYWGLGTQVTVSS” as the sequence, how does the “polyreactivity (PSR sort gate)” value read?
The value was “high polyreactivity”.

For “QGQLVESGGGLVQAGGCLRLSCAASGAIFCYAMGWYRQAPGKERDLVAAISFSGVSTYYADSVKGRFTISRENAKNSVYLQMISLIPEDTAVYYCNAYSDGDEDYWGQGTKVTVSS”, which “polyreactivity (PSR sort gate)” value is on record?
The value was “low polyreactivity”.

With “QGQLVESGGGLVQAGGILRLSCAASGIIFCRYAMGWYRQAPGKERELVATITWRGGSTYYADSVKARFTNSRDNAKNTVYLQMNSLKPEDTAVYSSAADTRPSRSFRARDYWGQGTQVTVSS” as the sequence, how does the “polyreactivity (PSR sort gate)” value read?
The value was “low polyreactivity”.

For “QGQLVESGGGLVQAGGKLRLSCAASGSIFVRYAIGWYRQAPGKERELVAAISTRGDTTYYADSVKGRFTNSRDNAKNTVYLQLNSLKPEDTAVFYCAAVASQYPGPRNYDYWGQGTQVTVSS”, which “polyreactivity (PSR sort gate)” value is on record?
The value was “low polyreactivity”.

With “QGQLVESGGGLVQAGGRLRLSCAASGSIFASYAMGWYRQAPGKERELVAAITSDGNTYYADSVKGRFTISRDNAKNTVYLQMNSLKPEDTAVYYCAADRYSTYPYAKGTEFYYWGQGTQVTVSS” as the sequence, how does the “polyreactivity (PSR sort gate)” value read?
Its value is “low polyreactivity”.

Which “polyreactivity (PSR sort gate)” value does the source give for “QGQLVESGGGLVQAGGRLRLSCAASGSTFYGNAMGWYRQAPGKERELVAAITWGDASTYYADSVKGRFTISRDNAKNPVYLQMNSLKPEDTAVSYCAVDESYGSSSDMDYWGQGTQVTVSS” here?
Its value is “low polyreactivity”.

Which “polyreactivity (PSR sort gate)” value does the source give for “QGQLVESGGGLVQAGGSIRLSCAAYGSTFNVNAMGLYRQAPGKERELVAAISRSCVSTYYADSVKWRFTISRDNAKNTVYLQMNSLKPEDTAVYYCNAYPGNWRGYRMDYWGQGNQVTVSS” here?
The value was “high polyreactivity”.

Which “polyreactivity (PSR sort gate)” value does the source give for “QGQLVESGGGLVQAGGSLRFSCAASGRTLSAHAMGWYREAPGTERELVATISTRGGRTYYADSVKGRFTISRDHAKNTVYIQMNSLKPEHTAVYSCAVTIRAKYTLKEDYWGQGTQVTVSS” here?
The value was “low polyreactivity”.

With “QGQLVESGGGLVQAGGSLRISSAASGGNFPGNTMGWYRLAPGKESELVAAISNGVSTNYADSVKGGFTISRDNAKNTVYLQMNSQKPEDTAVYYCAAEWSWWDGEDYHFEYDYWGQGTQVTVSS” as the sequence, how does the “polyreactivity (PSR sort gate)” value read?
Its value is “low polyreactivity”.

With “QGQLVESGGGLVQAGGSLRLSCAASGFIFFYYAMGWYRQAPRKERELVATISANGGNTYYADSVKGRFTISRDNAKNTVYLQMNSLKPEDTAVSYCARYTWYLRDWQWYYWGDEDYWGQGTQVTVSS” as the sequence, how does the “polyreactivity (PSR sort gate)” value read?
The value was “high polyreactivity”.

With “QGQLVESGGGLVQAGGSLRLSCAASGFIFRYYTMGWYRQAPGKERELVAAITSRGGSTYYADSVKGRFTISRDNAKNTFYLQMNSLKPEDTAVYYCATTRWGYEYWGQGTQVTVSS” as the sequence, how does the “polyreactivity (PSR sort gate)” value read?
Its value is “high polyreactivity”.

With “QGQLVESGGGLVQAGGSLRLSCAASGFIFSKYAMGWYRQAPGKERELVAAISYRTVRTYYADSVKGRFTISRDNAKNTVDLQMNSLKPEDTAVYYCAADSRYWLYDYWGQGTQVTVSS” as the sequence, how does the “polyreactivity (PSR sort gate)” value read?
The value was “high polyreactivity”.

Which “polyreactivity (PSR sort gate)” value does the source give for “QGQLVESGGGLVQAGGSLRLSCAASGFNFRRYAMGWYRHAPGKERELVAVITSGGSTYYADSVKGRFTISRDYAKNTVYLQMNSLKPEDTAVYYCASRYYWYSQEYVLSSWWGDYWGLGTQVTVSS” here?
The value was “high polyreactivity”.

For “QGQLVESGGGLVQAGGSLRLSCAASGFTFRGYAMGWYRQAPGKERELVATITSGGDTNDADSVKGRFTISRDNAKKTVYLQMNSLKPEDTAVYYCAAHDWEFVEEAGPVPWTPYDYWGQGTQVTVSS”, which “polyreactivity (PSR sort gate)” value is on record?
Its value is “low polyreactivity”.

Which “polyreactivity (PSR sort gate)” value does the source give for “QGQLVESGGGLVQAGGSLRLSCAASGFTFVYNAMGWYRQAPGKERELVAAITSGGNTYYADSVKGRFTISRDNAKNTVYLQMNSLKPEDTAVYYCAALSYYRFSQEDDYWGQGTQVTVSS” here?
Its value is “high polyreactivity”.

For “QGQLVESGGGLVQAGGSLRLSCAASGGIFDSNAMGWYRQARGKERELVAAISDSGGSTYYADSVKGRFTITRDNAKNTVYLQMNSLKTDDTAVYDCAADSDYHFLNYRFGMDYWGQGTQVTVSS”, which “polyreactivity (PSR sort gate)” value is on record?
Its value is “low polyreactivity”.

With “QGQLVESGGGLVQAGGSLRLSCAASGGIFTDYAMGWYRQAPGKERELVAAITRRGGRTYYADSVKGRFTISRDNAKNPVYLQMNSLKPEDTAVYYCAATRSGEYDYWGQGTQVTVSS” as the sequence, how does the “polyreactivity (PSR sort gate)” value read?
The value was “high polyreactivity”.

With “QGQLVESGGGLVQAGGSLRLSCAASGIILSAYALGWYRQAPGNERELVAAITRRGGRTYYADSVKGRFTISRDNAKNTVYLQMNSLKPEDTAVYYCATVQSGRVRTYDYWGQGTQVTVSS” as the sequence, how does the “polyreactivity (PSR sort gate)” value read?
The value was “high polyreactivity”.

Which “polyreactivity (PSR sort gate)” value does the source give for “QGQLVESGGGLVQAGGSLRLSCAASGISLKYAMGWYRQAPGKERELVASISSRGTSTYYADSVKGRFTISRDNAMNTVYLQMNSLKPEDTAVYYCNTVPPYWWGYWYKGDHWGQGTQGTVSS” here?
The value was “high polyreactivity”.

For “QGQLVESGGGLVQAGGSLRLSCAASGRIFVANAMGWYRQAPGKERELVAAISGRGSRTYYADSVKGRFTISRDNAKKTVYIQMNSLKPEETAVYSCAARYRYDGRYDYWGPGTQVTVSS”, which “polyreactivity (PSR sort gate)” value is on record?
Its value is “high polyreactivity”.

Which “polyreactivity (PSR sort gate)” value does the source give for “QGQLVESGGGLVQAGGSLRLSCAASGRIFVIYAMGWYRQAPGKERELVAAISSRGGTTYYADSVKGRFTISRDNAKNTVYLQMNSLKPEDTAGYYCNVARFYHIYDYWGQGTHVTVSS” here?
The value was “high polyreactivity”.

Which “polyreactivity (PSR sort gate)” value does the source give for “QGQLVESGGGLVQAGGSLRLSCAASGRIFVTYAMGWYRQAPGKERELVATINSGGSTYYADSVKGRFTISRDNAKNTVYLQMNSLKPEDTAVYYCNTDFGQAHTLSWYEDMDYWGQGTQVTVSS” here?
The value was “low polyreactivity”.

Which “polyreactivity (PSR sort gate)” value does the source give for “QGQLVESGGGLVQAGGSLRLSCAASGRIFYQNDMGWYIQAPGKERELVADIASGGSTYYADSVKGRFTISRDNAKNTVYLQMNSLKPEDTAVYYCASAVLYGDGWYYYWGQGTQVTVSS” here?
The value was “low polyreactivity”.

Which “polyreactivity (PSR sort gate)” value does the source give for “QGQLVESGGGLVQAGGSLRLSCAASGRSVARYAMGGYRQAPGKERELVAAITVSGDNTYYADSVKGRFTISRDNAKNTVYLQMNSLKPEDTAVYYCAVRAVLLIGFFEYDYWGQGTQVTVSS” here?
Its value is “low polyreactivity”.

Which “polyreactivity (PSR sort gate)” value does the source give for “QGQLVESGGGLVQAGGSLRLSCAASGRTFKVYAMGWYRQAPGKERELVAAISFSGGSTYYADSVKGRFTISRDNAKNTVYLQMNSLKPEDTAVYYCATTYPGAIRDYWGQGTQVTVSS” here?
The value was “high polyreactivity”.

For “QGQLVESGGGLVQAGGSLRLSCAASGRTFRYNAMGWYRQAPGKERELVAAITWGGGSTDYADSVKGRFTISRDNAKNTVYLQMHSLKPEDTAVYYCNADYIGNYHSIYQYDYWGQGTQVTVSS”, which “polyreactivity (PSR sort gate)” value is on record?
Its value is “low polyreactivity”.

Which “polyreactivity (PSR sort gate)” value does the source give for “QGQLVESGGGLVQAGGSLRLSCAASGRTFVRNAMGWSSQGPGKEREWVAAISSIGDSTYYAYSLKGRFTISRDNAKNTVYLQLNTLKPEDTAVYYCAAECVTSYYNYYHWGQGTQVTVSS” here?
Its value is “low polyreactivity”.

Which “polyreactivity (PSR sort gate)” value does the source give for “QGQLVESGGGLVQAGGSLRLSCAASGSIFGENAMGWYRPAPGKERELVAAISSAGSTKYADSVKGRFTISRDNAKNTVYLQMNSLKPEDTAVYYCAAGYYRTSYPYSYYYWGQGTQVTVSS” here?
The value was “low polyreactivity”.

Which “polyreactivity (PSR sort gate)” value does the source give for “QGQLVESGGGLVQAGGSLRLSCAASGSIFLGYAMGWYRQAPRKERELVAVITKSRGRTYYADSVKGRFTISRDNAKNTVYFQMNSLKPEDTAVYYCAKQPGSAYDYWGQGTQVTVSS” here?
Its value is “high polyreactivity”.

With “QGQLVESGGGLVQAGGSLRLSCAASGSIFRAYAMGWNRQAPGKERELVAAISWGGGSTSYADSVKGRFTISRDNAMNTVYLQMNSLKPEDTAVYYCAAELYLSRLRYWYDYWGHGTQVTVSS” as the sequence, how does the “polyreactivity (PSR sort gate)” value read?
Its value is “high polyreactivity”.

With “QGQLVESGGGLVQAGGSLRLSCAASGSIFSHYAMGWYRQAPGKEMELVAAISRSGGSTYYADSVKGRFTISRDNAKNTVYLQMNCLKPEDTAVYYCAKEGDSGYWFDYWGQGTQVTVSS” as the sequence, how does the “polyreactivity (PSR sort gate)” value read?
The value was “low polyreactivity”.

With “QGQLVESGGGLVQAGGSLRLSCAASGSIFVRNAMGWYRQAPGKERELVAADSVKGRFTISRDNAKNTVYLQMNSLKPEDTAVYYCNKDYIIRRGAIVYYGFDYWGHGTQVTVSS” as the sequence, how does the “polyreactivity (PSR sort gate)” value read?
Its value is “low polyreactivity”.

For “QGQLVESGGGLVQAGGSLRLSCAASGSSFANYDMGRYRQAPGKERELVAAITSDGSTYYADSVKGRFTISRDNAKNTVYLQMNSLKPEDTAVYYCAASTPSDAWVDDWGQGTQVTVSS”, which “polyreactivity (PSR sort gate)” value is on record?
Its value is “low polyreactivity”.

With “QGQLVESGGGLVQAGGSLRLSCAASGSTFGKYVMGWYRQAHGKERELVAAISRSGGSTYYADSVKGRFTISRDNAKNTVYLQLNSLKPDDTAVYYCAAYNGITSHLRFDYWGQGTQVTVSS” as the sequence, how does the “polyreactivity (PSR sort gate)” value read?
The value was “high polyreactivity”.

Which “polyreactivity (PSR sort gate)” value does the source give for “QGQLVESGGGLVQAGGSLRLSCAASGSTFGYNVMGWYRQAPGKERELVAAINYSGVRTYYADSVKGRFTISRDNAKNTVYLQMNSLKPEDTAVYYCNATPTRAVGPYQYNYWGQGTQVTVSS” here?
Its value is “high polyreactivity”.

For “QGQLVESGGGLVQAGGSLRLSCAASGSTFRLYAMGWYRQAPGKERELVAAISQRGASTYADSVKGRFTISRDNAKNTLNLQMNSLKPEDTAFYYCSAVRNCRYWYRQYGFCGQGTQVTVSS”, which “polyreactivity (PSR sort gate)” value is on record?
Its value is “high polyreactivity”.

For “QGQLVESGGGLVQAGGSLRLSCAASGSTYLGNDMAWYIQAPGKERELVATITGSSGSTYYADSVKGRFTISRDNAKNTVYLQMNSLKPEDTAVYYCNTVYNYWDCYDYWGQGTQVTVSS”, which “polyreactivity (PSR sort gate)” value is on record?
Its value is “low polyreactivity”.

For “QGQLVESGGGLVQAGGSLRLSCAASVRTSVINAMGWYRQAPGKERELVAAITKRGGSTYYADSVKGRFTISRDIAKNTVYLQMNSLKPEDTEVYYCAKYPIYIQYDSWGQGTQVTVSS”, which “polyreactivity (PSR sort gate)” value is on record?
Its value is “high polyreactivity”.

With “QGQLVESGGGLVQAGGSLRLSCAAYGRIFYVYAMGWYRQAPGKERELVATITSSGDGTYYADSVKGRFTISRDNAKNTGYLQMNSLIPEDTAVYYCAARSWPYSQTGKRFVEYYYWGQGTQVSVSS” as the sequence, how does the “polyreactivity (PSR sort gate)” value read?
Its value is “low polyreactivity”.

For “QGQLVESGGGLVQAGGSLRLSCADSGNTFNPNAMGWYRQAPGKERELVAVIRFRGVSKYYADSVKGRFTISRDNAKNSVYLQMNSLKPEDTAVYYCAADFLYYYLRYYFWGQGTQVTVSS”, which “polyreactivity (PSR sort gate)” value is on record?
The value was “high polyreactivity”.

Which “polyreactivity (PSR sort gate)” value does the source give for “QGQLVESGGGLVQAGGSLRLSCAGSGRTFSSNAMGWYRQGRGKVRELVASISFRGGRTYYADSVKGRFTISRHNAKKTVYLQMNSLKPEDTAVYYCVSRTKRTGYGYWGQGTQVTVSS” here?
The value was “high polyreactivity”.

With “QGQLVESGGGLVQAGGSLRLSCPASGNTFKYYAMGWYRQAPGKEWELVAAISYSGGSTYYADSVKGRFTISRDNAKNTVYLQMNSLKPEDTAVYYCAADPTNSYLEYDEWGQGTQVTVSS” as the sequence, how does the “polyreactivity (PSR sort gate)” value read?
Its value is “low polyreactivity”.

Which “polyreactivity (PSR sort gate)” value does the source give for “QGQLVESGGGLVQAGGSLRLSSAASGSTFARYAMGWYRQAPGKERELVAVIRSGGSTNYADSVKGRFTISRDNAKNTVYLQMNSLKPEDTAGAADLWTLHRWATYGYWGQGTQVTVSS” here?
The value was “low polyreactivity”.
